# Substitutions are numbered along the chain they refer to.
# T1: recombinant human WISP1/His (human, UniProt O95388 23-367)
# T1 construct: also called hWISP1; recombinant human WISP1 protein; not shown: His tag
# T1 sequence (looked up): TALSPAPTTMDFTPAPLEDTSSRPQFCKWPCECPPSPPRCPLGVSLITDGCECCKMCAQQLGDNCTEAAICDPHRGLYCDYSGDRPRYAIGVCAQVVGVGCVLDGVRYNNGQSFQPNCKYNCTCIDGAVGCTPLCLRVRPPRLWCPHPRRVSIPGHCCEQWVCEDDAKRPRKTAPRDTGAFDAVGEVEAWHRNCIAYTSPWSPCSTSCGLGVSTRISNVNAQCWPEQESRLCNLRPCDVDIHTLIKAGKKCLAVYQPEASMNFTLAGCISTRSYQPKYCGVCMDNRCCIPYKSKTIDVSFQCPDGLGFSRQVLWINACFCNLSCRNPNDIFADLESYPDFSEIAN
# T2: recombinant mouse WISP1/His (mouse, UniProt O54775 23-367)
# T2 construct: also called murine WISP1; mWISP1; not shown: His tag
# T2 sequence (looked up): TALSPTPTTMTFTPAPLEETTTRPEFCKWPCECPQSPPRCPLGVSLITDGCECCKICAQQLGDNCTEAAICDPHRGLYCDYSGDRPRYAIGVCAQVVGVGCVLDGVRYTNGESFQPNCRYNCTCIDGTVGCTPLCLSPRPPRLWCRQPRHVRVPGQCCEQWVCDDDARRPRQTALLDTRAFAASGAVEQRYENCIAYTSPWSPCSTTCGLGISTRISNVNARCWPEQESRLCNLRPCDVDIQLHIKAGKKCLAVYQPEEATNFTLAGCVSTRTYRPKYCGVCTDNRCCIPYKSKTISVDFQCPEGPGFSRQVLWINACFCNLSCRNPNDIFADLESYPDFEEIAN
# B1: WIr2H3 (antibody, V domains shown)
# VH: EVQLVQSGGGMVQPGGSLRLSCAASGFTFSDYYMDWVRQAPGQGLEWVGRIRHKAQGYTTEYAASVKGRFSISRDDSRSSLSLQMNSLKTEDTAVYYCAMVGGSRDWGQGTLVTVSS
# VL: QAGLTQPPSVSGAPGQRVTISCTGGSSNIGPGYAVHWYQQHPGRAPKLLIYTNNNRPSGVPDRFSGSRSGTSASLAITGLQAEDDAYYYCQSYDSSLSGSVFGGGTKLTVL
# notes: Tested as IgG (captured by anti-human Fc); also called Wlr2H3
# B2: WIr2D6 (antibody, V domains shown)
# VH: EVQLVQSGAEVKRSGASVKVSCKLSGDTLTDLSIHWVRQAPGKGLEWMGGFDFEDGEIVYGDKFKGRVTVTEDPSTDTAYMDLKRLTFEDTAIYYCATIKDIPGRYYFDFWGQGTLVTVSS
# VL: VIWMTQSPSSVSASVGDTVTITCRASQGIRSWLAWYQQKPGKAPKLLIYGASSLHSGVPSRFSGSGSGTYFTLTISSLQPEDFATYYCQQADSFPPWTFGQGTKVEIK
# notes: Tested as IgG (captured by anti-human Fc); also called Wlr2D6
# B3: WIr2H4 (antibody, V domains shown)
# VH: EVQLVESGGDLVQPGGSLRLSCAASGFTLNSRDMHWVRQSTRTGLEWVAAISIAGDTYYPLSVRGRFTISRDTAKSSLYLQMNSLTDGDTAVYYCVRGRHFDGYKSVFFDSWGQGTLVTVSS
# VL: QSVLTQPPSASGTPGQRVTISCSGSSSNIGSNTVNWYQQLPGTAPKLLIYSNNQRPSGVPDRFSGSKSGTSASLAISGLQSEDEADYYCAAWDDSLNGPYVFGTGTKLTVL
# notes: Tested as IgG (captured by anti-human Fc); also called Wlr2H4
# B4: WIr2C11 (antibody, V domains shown)
# VH: QVQLVESGGALVQPGGSLRLSCAASGFTFSDHWLSWVRQAPGKGLEWVSSISSSSRYIHYADSVKGRFTISRDNAKNSLYLQMNSLSAEDTAVYYCAREDTSMATNGFDVWGQGTMVTVSS
# VL: AIQLTQSPSSLSASVGDRVTITCRASQGIRNHLGWYQQKPGKAPKRLIYAASSLQSGVPSRFSGSGSGTEFTLTISGLQPEDFATYYCLQHNSYPFTFGQGTRLEIK
# notes: Tested as IgG (captured by anti-human Fc); also called Wlr2C11
# B5: WIr2F6 (antibody, V domains shown)
# VH: QMQLVQSGAEVKRPGASVKVSCKASGYSFTNFDINWVRQATGQGLEWMGWMDPNSGNSGSAPAFQGRVTMTRDTSIGTAYMELSGLTSEDTAVYYCARDDFYDSSGFDAWGQGTLVTVSS
# VL: QSVLTQPPSASGTPGQTVTVSCSGRSSNVGSNTVDWYQHLPGTAPKLLIYSSNRRPSGVPDRFSGSKSGTSASLAISGLQSEDEADYYCAAWDDSLNVYVFGTGTKLTVL
# notes: Tested as IgG (captured by anti-human Fc); also called Wlr2F6
# B6: WIr2G7 (antibody, V domains shown)
# VH: QVQLVQSGAEVKKPGASVKVSCKASGYTFTSYDINWVRQATGQGPEWLGWLNPGSGKTGNAQNFQGRVFMTWDTSKDTAYMEMSSLRSDDTAVYYCARNLDYWGQGTLVTVSS
# VL: DIVMTQTPLSLPVTLGQPASISCRSSQSLVYSDGNTYLSWLQQRPGQPPRVLINQISNRFSGVPDRFSGSGAGTDFTLKISRVEAEDVGVYYCMQATQFPVTFGGGTKVEIK
# notes: Fully human IgG; also called Wlr2G7
# B7: WIr2G8 (antibody, V domains shown)
# VH: QVQLVQSGAEVQKPGASVKVSCKASGYRFINNDIHWVRQATGQGLEWMGWMDPNNGKTGYAQKFQGRVTMTRDTSISTAYMELSSLRSEDTGVYYCVRGIIAAAGGGWGQGTLVTVSS
# VL: DVVMTQSPSTLSASVGDRATITCRASQSVDTWLAWYQQKPGKAPHVLIYKASNLNSGVPSRFSGSGSGTEFTLTISSLQPDDFATYYCQQYKTWWTFGQGTKVEIK
# notes: Fully human IgG; also called Wlr2G8
# B8: WIr2D5 (antibody, V domains shown)
# VH: EVQLVESGAEVKKPGASVKVSCKASGYTFTSYGISWVRQAPGQGLEWMGWISAYNGNTNYAQKLQGRVTMTTDTSTSTAYMELRSLRSDDTAVYYCARVRVFEYSSLMDVWGQGTTVTVSS
# VL: AIQMTQSPSSLSASVGDRVTITCQASQDISNYLNWYQQKPGKAPKLLIYDASNLETGVPSRFSGSGSGTDFTFTISSLQPEDIATYYCQQHDNLPITFGQGTRLEIK
# notes: Fully human IgG; also called Wlr2D5
# B9: WIr2E4 (antibody, V domains shown)
# VH: QVQLQQSGAEVKKPGASVKVSCKVSGYTLTELSMHWVRQAPGKGLEWMGGFDPEDGETIYAQKFQGRVTMTEDTSTDTAYMELSSLRSEDTAVYYCATDRWWERTTWGAFDIWGQGTMVTVSS
# VL: QSVLTQPASVSGSPGQSITISCIGTGSAAVSWYQQHPGKAPKLIIYDVNNRPSGVSARFSGSKSDNTASLTISGLQAEDEGDYYCSTYGAGSTWVFGGGTKLTVL
# notes: Fully human IgG; also called Wlr2E4
# B10: WIr2H2 (antibody, V domains shown)
# VH: EVQLVQSGADVKKPGASVKVSCQASGYTLTSYDIHWMRQAPGQGLEWMGWINPNSGNTGYAEKFQGRVAMTSHTSTSTVYMELSRLTSEDTAVYYCARGAMGGFDPWGQGTLVTVSS
# VL: DIQMTQSPSSVSASVGDRVTITCRASQDISRWLAWYQQKPGKAPKLLIYAASTLQSGVPSRFSGSGSGTDFTLTISSLQPEDFATYYCQQANTFPITFGQGTRLEIK
# notes: Fully human IgG; also called Wlr2H2
# B11: WIr2D3 (antibody, V domains shown)
# VH: QVQLVQSGGGLVQPGRSLRLSCAASGFTFSSYGMHWVRQAPGKGLEWVAVISYDGSNKYYADSVKGRFTISRDNSKNTLYLQMNSLRAEDTAVYYCFDDYVDYWGQGTLVTVSS
# VL: DIVMTQTPSSLSASVGDRVTITCRASQGISNYLAWYQQKPGKAPKLLIYAASSLQSGVPSRFSGSGSGTDFTLTISSLRPEDFATYYCLQDYSFPLTFGGGTKVEIK
# notes: Fully human IgG; also called Wlr2D3
# B12: WIr2B9 (antibody, V domains shown)
# VH: QVQLVQSGAEVKKPGSSVKVSCKASGGTFNNYNINWVRQAPGQGFEWMGRIVPMLGVPKYAQKFQGRVTISADMSTSTAYMELRSLRSDDTAMYYCARGEDLDPWGQGTLVTVS
# VL: SYELMQPASVSGSPGQSITISCTGTSSDVGGYNYVSWYQQHPGKAPKLMIYDVSKRPSGVSNRFSGSKSGNTASLTISGLQAEDEADYYCSSYTSSSPYVFGTGTKVTVL
# notes: Fully human IgG; also called Wlr2B9
# B13: WIr2D10 (antibody, V domains shown)
# VH: QVQLVESGGGVVQPGRSLRLSCGASGFTFSRFAMHWVRQAPGKGLEWVTVTSFDGSEIYYADSVKGRFTISRDNSKNTLYLQMNSLRVDDTAVYFCARDALGSIDYWGQGTLVTVSS
# VL: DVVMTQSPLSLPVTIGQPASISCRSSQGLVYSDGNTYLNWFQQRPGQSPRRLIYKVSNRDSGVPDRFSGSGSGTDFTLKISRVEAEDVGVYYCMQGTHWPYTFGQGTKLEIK
# notes: Fully human IgG; also called Wlr2D10
# B14: WIr2D9 (antibody, V domains shown)
# VH: QVQLVQSGAEVKKPGASVKVSCKVSGYTLTELSMHWVRQAPGKGLEWMGGFDPEDGETIYAQKFQGRVTMTEDTSTDTAYMELSSLRSEDTAVYYCATEGWFGELSPVYWGQGTLVTVSS
# VL: B4 VL with G28D, H32D, K42R, K45Q, A50T, A51T, S53T, G77S, S93T, F96W
# notes: Fully human IgG; also called Wlr2D9
# Biological target: T1, recombinant human WISP1/His
# Experiment: SPR, IgG captured on anti-human Fc CM5 chip, human WISP1/His as analyte, 1:1 Langmuir fit
# Procedure: This example illustrates binding affinities of various anti-WISP-1 antibodies disclosed herein. Briefly, Anti-human Fc antibody (GE, BR-1008-39) was immobilized on CM5 sensor chip to approximately 1000 RU using standard NHS/EDC coupling methodology. Antibodies (about 10 μg/ml) were captured for 60 s at a flow rate 10 μl/min. Recombinant human WISP1/His was serially diluted in running buffer (HBS-EP). All measurements were conducted with a flow rate of 30 μL/min. Surfaces were regenerated with 3M MgCl2 for 60 s. A 1:1 (Langmuir) binding model was used to fit the data.
Binder,Kd [nM],koff [s⁻¹],kon [M⁻¹ s⁻¹]
B1,95.9,0.00897,93500
B2,53.9,0.0489,907000
B3,0.631,0.00025,396000
B4,81.7,0.0219,267000
B5,10.1,0.00559,554000

# Biological target: T2, recombinant mouse WISP1/His
# Experiment: ELISA screening
row,Binder,binding result
1,B1,binds
2,B6,binds
3,B2,binds
4,B7,binds
5,B8,binds
6,B9,binds
7,B10,binds
8,B11,binds
9,B12,binds
10,B3,binds
11,B13,binds
12,B4,binds
13,B14,binds
14,B5,binds

# Biological target: T1, recombinant human WISP1/His
# Experiment: ELISA screening
row,Binder,binding result
1,B6,binds
2,B7,binds
3,B8,binds
4,B9,binds
5,B10,binds
6,B11,binds
7,B12,binds
8,B13,binds
9,B14,binds

# Source: patent US20170304442A1 (SORRENTO THERAPEUTICS, published 2017)
